The subject of this data set is Escherichia coli TOP10. Nature of the data set: shrunken log2 fold change of peptide-encoding DNA abundance (4.5 h post-induction vs induction); higher = less antimicrobial activity (less host growth inhibition). As to conditions: time post-induction: 4.5 h; library: site-saturation at positions 5, 18, 19, 20.
As to RRIRMRPPRLPRPRPRPNGTPRP, the “shrunken log2 fold change” value amounted to 0.0915.
As to RRIRGRPPRLPRPRPRPASQPRP, the “shrunken log2 fold change” value is 0.76.
To RRIRFRPPRLPRPRPRPAAKPRP belongs -0.118; to RRIRIRPPRLPRPRPRPRRKPRP, 0.0881.
To RRIRLRPPRLPRPRPRPAKSPRP belongs -0.0164; to RRIRDRPPRLPRPRPRPSIAPRP, 0.146; to RRIRQRPPRLPRPRPRPNLFPRP, -0.0199.
As for RRIRMRPPRLPRPRPRPLAKPRP, the “shrunken log2 fold change” value was determined as 0.791.
RRIRQRPPRLPRPRPRPIFNPRP: the “shrunken log2 fold change” value is -0.365.
For RRIRKRPPRLPRPRPRPLGVPRP the value was 0.438; for RRIRNRPPRLPRPRPRPWTPPRP, -0.0926; for RRIRHRPPRLPRPRPRPGFAPRP, 0.142.
In the case of RRIRYRPPRLPRPRPRPWRPPRP, the “shrunken log2 fold change” value is -0.0287.
Take RRIRIRPPRLPRPRPRPCLLPRP: the “shrunken log2 fold change” value was -0.495.
Consider RRIRERPPRLPRPRPRPVDMPRP, for which the “shrunken log2 fold change” value was -0.107.
To RRIRARPPRLPRPRPRPMKFPRP belongs 0.0174.
For the sequence RRIRDRPPRLPRPRPRPKITPRP, the “shrunken log2 fold change” value is -0.375.
To RRIRPRPPRLPRPRPRPLQKPRP belongs -0.0453; to RRIRVRPPRLPRPRPRPQEDPRP, -0.467; to RRIRCRPPRLPRPRPRPHLKPRP, -0.322.
For RRIRHRPPRLPRPRPRPNNCPRP the value was -0.0202.
For RRIRMRPPRLPRPRPRPGKRPRP the value was 0.078.
Turning to RRIRKRPPRLPRPRPRPQRFPRP, the “shrunken log2 fold change” value is -0.00315.
For RRIRDRPPRLPRPRPRPYYPPRP the value was -0.248; for RRIRQRPPRLPRPRPRPFEMPRP, -0.0512; for RRIRGRPPRLPRPRPRPSGLPRP, 0.3.
To RRIRQRPPRLPRPRPRPKYPPRP belongs 0.0386; to RRIRERPPRLPRPRPRPDMLPRP, -0.166.
For RRIRDRPPRLPRPRPRPYYVPRP the value was 0.0365; for RRIRSRPPRLPRPRPRPRALPRP, 0.0323.
With RRIRQRPPRLPRPRPRPKMYPRP, the “shrunken log2 fold change” value was -0.544.
For RRIRSRPPRLPRPRPRPMIKPRP, the “shrunken log2 fold change” value is -0.464.
Take RRIRQRPPRLPRPRPRPHMIPRP: the “shrunken log2 fold change” value was -0.515.
For RRIRTRPPRLPRPRPRPKYWPRP the value was -0.254.
Turning to RRIRRRPPRLPRPRPRPTQIPRP, the “shrunken log2 fold change” value is -0.0829.
For RRIRFRPPRLPRPRPRPTTAPRP the value was 0.297; for RRIRCRPPRLPRPRPRPSTMPRP, -0.509.
To RRIRNRPPRLPRPRPRPEGGPRP belongs -0.00659.
For RRIRGRPPRLPRPRPRPMTTPRP the value was 1.16; for RRIRTRPPRLPRPRPRPVRCPRP, 0.382.
With RRIRDRPPRLPRPRPRPHWSPRP, the “shrunken log2 fold change” value was -0.132.
For RRIRVRPPRLPRPRPRPVYSPRP the value was -0.0974.
To RRIRSRPPRLPRPRPRPSGDPRP belongs 0.118; to RRIRPRPPRLPRPRPRPYRYPRP, 0.101.
Consider RRIRSRPPRLPRPRPRPGWHPRP, for which the “shrunken log2 fold change” value was 0.234.
For RRIRWRPPRLPRPRPRPWYLPRP the value was -0.193; for RRIRQRPPRLPRPRPRPRHAPRP, -0.0685.
For RRIRHRPPRLPRPRPRPFDCPRP the value was -0.186.
For RRIRDRPPRLPRPRPRPGQGPRP the value was 0.257; for RRIRRRPPRLPRPRPRPMPNPRP, 0.129; for RRIRQRPPRLPRPRPRPVEEPRP, -0.0284.
In the case of RRIRQRPPRLPRPRPRPEAMPRP, the “shrunken log2 fold change” value was determined as 0.00408.
For RRIRYRPPRLPRPRPRPGLDPRP the value was -0.188; for RRIRPRPPRLPRPRPRPARQPRP, 0.253.
To RRIRRRPPRLPRPRPRPWGAPRP belongs 0.483; to RRIRDRPPRLPRPRPRPVIQPRP, 0.474.
To RRIRQRPPRLPRPRPRPFYLPRP belongs -0.437; to RRIRDRPPRLPRPRPRPTSAPRP, 0.418; to RRIRTRPPRLPRPRPRPDCKPRP, -0.126.
RRIRARPPRLPRPRPRPKYIPRP: the “shrunken log2 fold change” value was -0.536.
For RRIRCRPPRLPRPRPRPRHYPRP the value was -0.393; for RRIRSRPPRLPRPRPRPRMWPRP, 0.114.
Turning to RRIRFRPPRLPRPRPRPFQRPRP, the “shrunken log2 fold change” value was 0.0192.
For RRIRQRPPRLPRPRPRPCYNPRP the value was -0.0459.
To RRIRCRPPRLPRPRPRPHYDPRP belongs -0.687; to RRIRQRPPRLPRPRPRPRDSPRP, 0.0142.
For RRIRMRPPRLPRPRPRPHKKPRP, the “shrunken log2 fold change” value is 0.0772.
In the case of RRIRMRPPRLPRPRPRPREEPRP, the “shrunken log2 fold change” value worked out at 1.41.
To RRIRCRPPRLPRPRPRPWFQPRP belongs -0.2.
For RRIRYRPPRLPRPRPRPIDWPRP the value was 0.0205.
RRIRSRPPRLPRPRPRPALPPRP: the “shrunken log2 fold change” value turned out to be 0.26.
To RRIRYRPPRLPRPRPRPGFSPRP belongs -0.0944; to RRIRPRPPRLPRPRPRPQRIPRP, 0.0114.
For RRIRERPPRLPRPRPRPIKMPRP the value was -0.347; for RRIRPRPPRLPRPRPRPWQEPRP, 0.00579; for RRIRHRPPRLPRPRPRPLTEPRP, -0.342.
For RRIRCRPPRLPRPRPRPFHKPRP the value was -0.0775; for RRIRGRPPRLPRPRPRPWLLPRP, 0.216.
In the case of RRIRRRPPRLPRPRPRPWRAPRP, the “shrunken log2 fold change” value stood at 0.181.
To RRIRNRPPRLPRPRPRPMFSPRP belongs -0.186.
To RRIRKRPPRLPRPRPRPRVPPRP belongs 0.0172; to RRIRSRPPRLPRPRPRPIKTPRP, 0.000501; to RRIRHRPPRLPRPRPRPNQNPRP, -0.285.
As for RRIRSRPPRLPRPRPRPGTVPRP, the “shrunken log2 fold change” value was -0.0347.
For RRIRQRPPRLPRPRPRPPKVPRP the value was 2.65e-05.
As for RRIRRRPPRLPRPRPRPCREPRP, the “shrunken log2 fold change” value turned out to be 0.0134.
To RRIRERPPRLPRPRPRPRPDPRP belongs 0.205; to RRIRNRPPRLPRPRPRPEAEPRP, 0.497; to RRIRHRPPRLPRPRPRPECLPRP, -0.00297.
For RRIRPRPPRLPRPRPRPYCHPRP the value was -0.241; for RRIRARPPRLPRPRPRPRYMPRP, -0.365.
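Further: peptides expressed intracellularly from a pBAD plasmid library in pooled LB shake-flask culture, induced with 0.3% L-arabinose, DNA abundance read by NGS, three biological replicates, DESeq2 with apeglm shrinkage.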
